Bridges are numbered along the chain shown (N, C = ends). Where no end group is shown, it is not given here. [ ]: non-standard residue; d: D form. Phe(4-NH2) = Nc1ccc(C[C@H](N)C(=O)O)cc1; 3Pal = N[C@@H](Cc1cccnc1)C(=O)O; hCys = N[C@@H](CCS)C(=O)O; F(pg) = not defined here; Pra = C#CC[C@H](N)C(=O)O
Molecular target: T1, Fc tagged recombinant human EGFR (rhEGFR-Fc, R&D systems, Cat#344-ER-050) (human, UniProt P00533 25-645)
T1 construct: Bought protein; also called apo-EGFR; not shown: Fc tag
Assay: SPR
Description: Surface plasmon resonance (SPR) binding studies were carried out on a Biacore T200 instrument (GE Healthcare). […] The contact time and resulting amount of rhEGFR-Fc capture was varied based on the nature of the analyte, namely whether it was a peptide or nanoparticle.
Peptide binding assays were carried out in 10 mM PBS buffer supplemented with 0.05% surfactant P20 and 5% DMSO by volume, at 25° C. Peptides were injected over the rhEGFR-Fc surface for 60 s, followed by dissociation (buffer injection) for 60 s and regeneration with a 10 s pulse of 3M MgCl₂. A fresh rhEGFR-Fc surface was generated for each concentration of each peptide tested. Peptide binding data was analyzed by fitting to a 1:1 Langmuir kinetic model to obtain the on-rate (kₐ), off-rate (kd) and/or equilibrium binding constant (KD) of the interaction.

B1: P2-67 (peptide)
peptide: H-GGDPETWEVWGREKLQGG[Pra]G-NH2
modifications: lactam 5-14
B1: binds.

B2: P2-52 (peptide)
peptide: H-DP[hCys]TWEVWGRE[hCys]LQGG[Pra]G-NH2
modifications: disulfide 3-12
SMILES: C#CC[C@H](NC(=O)CNC(=O)CNC(=O)[C@H](CCC(N)=O)NC(=O)[C@H](CC(C)C)NC(=O)[C@@H]1CCSSCC[C@H](NC(=O)[C@@H]2CCCN2C(=O)[C@@H](N)CC(=O)O)C(=O)N[C@@H]([C@@H](C)O)C(=O)N[C@@H](Cc2c[nH]c3ccccc23)C(=O)N[C@@H](CCC(=O)O)C(=O)N[C@@H](C(C)C)C(=O)N[C@@H](Cc2c[nH]c3ccccc23)C(=O)NCC(=O)N[C@@H](CCCNC(=N)N)C(=O)N[C@@H](CCC(=O)O)C(=O)N1)C(=O)NCC(N)=O
B2 was tested, and the “Result (affinity relative to KD of P2)” value was 14 ratio.

B3: P2-53 (peptide)
peptide: DPCTWEVWGREXLQGGGG
modifications: free N-terminus; penicillamine (Pen) at 12, disulfide with Cys3; Par at 17; C-terminal amide
For B3, the “Result (affinity relative to KD of P2)” value was 2.64 ratio.

B4: P2-55 (free-ligand series, GG-Par-G tail) (peptide)
peptide: DPXTWEVWGREXLQGGGG
modifications: free N-terminus; Pen at 3 and 12, disulfide; Par at 17; C-terminal amide
notes: also called PenPen analog
For B4, the “Result (affinity relative to KD of P2)” value was 1.18 ratio.

B5: P2-3 (peptide)
peptide: DPATWEVWGRECLQ-{propargyl glycine moiety (p-0168)}
modifications: not fully specified (N-terminus)
notes: also called P2 Ala scan, AA position 3
B5: no binding.

B6: P2-31 (peptide)
peptide: H-DPCTW[Pra]VWGRECLQ-NH2
modifications: disulfide 3-12
SMILES: C#CC[C@@H]1NC(=O)[C@H](Cc2c[nH]c3ccccc23)NC(=O)[C@H]([C@@H](C)O)NC(=O)[C@@H](NC(=O)[C@@H]2CCCN2C(=O)[C@@H](N)CC(=O)O)CSSC[C@@H](C(=O)N[C@@H](CC(C)C)C(=O)N[C@@H](CCC(N)=O)C(N)=O)NC(=O)[C@H](CCC(=O)O)NC(=O)[C@H](CCCNC(=N)N)NC(=O)CNC(=O)[C@H](Cc2c[nH]c3ccccc23)NC(=O)[C@H](C(C)C)NC1=O
In the case of B6, the “KD/P2 KD” value is reported as 0.86 ratio.

B7: P2-8 (peptide)
peptide: DPCTWEVAGRECLQ
modifications: disulfide 3-12; not fully specified (N-terminus, C-terminus); also: C-terminal propargylglycine moiety
notes: also called P2 Ala scan, AA position 8
B7: no binding.

B8: P2-70 (peptide)
peptide: DPCTFEVWGRECLQ
modifications: disulfide 3-12; not fully specified (N-terminus, C-terminus)
notes: P2 backbone; also called P2 with Phenylalanine at W5
B8 was tested, and the “KD Relative to P2” value was 9.24 ratio.

B9: P2-35 (peptide)
peptide: H-DPCTWE[Pra]WGRECLQ-NH2
modifications: disulfide 3-12
SMILES: C#CC[C@@H]1NC(=O)[C@H](CCC(=O)O)NC(=O)[C@H](Cc2c[nH]c3ccccc23)NC(=O)[C@H]([C@@H](C)O)NC(=O)[C@@H](NC(=O)[C@@H]2CCCN2C(=O)[C@@H](N)CC(=O)O)CSSC[C@@H](C(=O)N[C@@H](CC(C)C)C(=O)N[C@@H](CCC(N)=O)C(N)=O)NC(=O)[C@H](CCC(=O)O)NC(=O)[C@H](CCCNC(=N)N)NC(=O)CNC(=O)[C@H](Cc2c[nH]c3ccccc23)NC1=O
B9 was tested, and the “KD/P2 KD” value was 5.69 ratio.

B10: P2-27 (peptide)
peptide: H-DPC[Pra]WEVWGRECLQ-NH2
modifications: disulfide 3-12
SMILES: C#CC[C@@H]1NC(=O)[C@@H](NC(=O)[C@@H]2CCCN2C(=O)[C@@H](N)CC(=O)O)CSSC[C@@H](C(=O)N[C@@H](CC(C)C)C(=O)N[C@@H](CCC(N)=O)C(N)=O)NC(=O)[C@H](CCC(=O)O)NC(=O)[C@H](CCCNC(=N)N)NC(=O)CNC(=O)[C@H](Cc2c[nH]c3ccccc23)NC(=O)[C@H](C(C)C)NC(=O)[C@H](CCC(=O)O)NC(=O)[C@H](Cc2c[nH]c3ccccc23)NC1=O
In the case of B10, the “KD/P2 KD” value is reported as 5.4 ratio.

B11: P2-12 (peptide)
peptide: Ac-DPCTWEVWGREALQ
modifications: also: C-terminal propargylglycine moiety, not placed
notes: also called P2 Ala scan, AA position 12
B11: no binding.

B12: P2-74 (peptide)
peptide: DPCT[3Pal]EVWGRECLQ
modifications: disulfide 3-12; not fully specified (N-terminus)
notes: P2 backbone; also called P2 with 3-Pyridyl Alanine at W5
With B12 the “KD Relative to P2” value was 11.8 ratio.

B13: P2-51 (peptide)
peptide: H-DP[hCys]TWEVWGRECLQGG[Pra]G-NH2
modifications: disulfide 3-12
SMILES: C#CC[C@H](NC(=O)CNC(=O)CNC(=O)[C@H](CCC(N)=O)NC(=O)[C@H](CC(C)C)NC(=O)[C@@H]1CSSCC[C@H](NC(=O)[C@@H]2CCCN2C(=O)[C@@H](N)CC(=O)O)C(=O)N[C@@H]([C@@H](C)O)C(=O)N[C@@H](Cc2c[nH]c3ccccc23)C(=O)N[C@@H](CCC(=O)O)C(=O)N[C@@H](C(C)C)C(=O)N[C@@H](Cc2c[nH]c3ccccc23)C(=O)NCC(=O)N[C@@H](CCCNC(=N)N)C(=O)N[C@@H](CCC(=O)O)C(=O)N1)C(=O)NCC(N)=O
For B13, the “Result (affinity relative to KD of P2)” value was 8.88 ratio.

B14: P2-86 (peptide)
peptide: DPCT[Phe(4-NH2)]EVWGRECLQ
modifications: disulfide 3-12; not fully specified (N-terminus)
notes: P2 backbone; also called P2 with 4-Amino Phenylalanine at W5
With B14 the “KD Relative to P2” value was 9 ratio.

B15: P2-37 (peptide)
peptide: H-DPCTWELWGRECLQGG[Pra]G-NH2
modifications: disulfide 3-12
SMILES: C#CC[C@H](NC(=O)CNC(=O)CNC(=O)[C@H](CCC(N)=O)NC(=O)[C@H](CC(C)C)NC(=O)[C@@H]1CSSC[C@H](NC(=O)[C@@H]2CCCN2C(=O)[C@@H](N)CC(=O)O)C(=O)N[C@@H]([C@@H](C)O)C(=O)N[C@@H](Cc2c[nH]c3ccccc23)C(=O)N[C@@H](CCC(=O)O)C(=O)N[C@@H](CC(C)C)C(=O)N[C@@H](Cc2c[nH]c3ccccc23)C(=O)NCC(=O)N[C@@H](CCCNC(=N)N)C(=O)N[C@@H](CCC(=O)O)C(=O)N1)C(=O)NCC(N)=O
For B15, the “KD/P2 KD” value was 10.1 ratio.

B16: P2-45 (peptide)
peptide: H-DPCTWEVWGAECLQGG[Pra]G-NH2
modifications: disulfide 3-12
B16: binds.

B17: P2-47 (peptide)
peptide: H-DPCTWEVWG[F(pg)]ECLQGG[Pra]G-NH2
modifications: disulfide 3-12; reading uncertain
For B17, the “KD/P2 KD” value was 37.1 ratio.

B18: P2-46 (peptide)
peptide: H-DPCTWEVWGKECLQGG[Pra]G-NH2
modifications: disulfide 3-12
For B18, the “KD/P2 KD” value was 13.9 ratio.

B19: P2-40 (peptide)
peptide: H-DPCTWEVFGRECLQGG[Pra]G-NH2
modifications: disulfide 3-12
SMILES: C#CC[C@H](NC(=O)CNC(=O)CNC(=O)[C@H](CCC(N)=O)NC(=O)[C@H](CC(C)C)NC(=O)[C@@H]1CSSC[C@H](NC(=O)[C@@H]2CCCN2C(=O)[C@@H](N)CC(=O)O)C(=O)N[C@@H]([C@@H](C)O)C(=O)N[C@@H](Cc2c[nH]c3ccccc23)C(=O)N[C@@H](CCC(=O)O)C(=O)N[C@@H](C(C)C)C(=O)N[C@@H](Cc2ccccc2)C(=O)NCC(=O)N[C@@H](CCCNC(=N)N)C(=O)N[C@@H](CCC(=O)O)C(=O)N1)C(=O)NCC(N)=O
B19: binds.

B20: P2-49 (peptide)
peptide: H-DPCTWEVWGRDCLQGG[Pra]G-NH2
modifications: disulfide 3-12
SMILES: C#CC[C@H](NC(=O)CNC(=O)CNC(=O)[C@H](CCC(N)=O)NC(=O)[C@H](CC(C)C)NC(=O)[C@@H]1CSSC[C@H](NC(=O)[C@@H]2CCCN2C(=O)[C@@H](N)CC(=O)O)C(=O)N[C@@H]([C@@H](C)O)C(=O)N[C@@H](Cc2c[nH]c3ccccc23)C(=O)N[C@@H](CCC(=O)O)C(=O)N[C@@H](C(C)C)C(=O)N[C@@H](Cc2c[nH]c3ccccc23)C(=O)NCC(=O)N[C@@H](CCCNC(=N)N)C(=O)N[C@@H](CC(=O)O)C(=O)N1)C(=O)NCC(N)=O
With B20 the “KD/P2 KD” value was 3.39 ratio.

B21: P2-39 (peptide)
peptide: H-DPCTWEVAGRECLQGG[Pra]G-NH2
modifications: disulfide 3-12
SMILES: C#CC[C@H](NC(=O)CNC(=O)CNC(=O)[C@H](CCC(N)=O)NC(=O)[C@H](CC(C)C)NC(=O)[C@@H]1CSSC[C@H](NC(=O)[C@@H]2CCCN2C(=O)[C@@H](N)CC(=O)O)C(=O)N[C@@H]([C@@H](C)O)C(=O)N[C@@H](Cc2c[nH]c3ccccc23)C(=O)N[C@@H](CCC(=O)O)C(=O)N[C@@H](C(C)C)C(=O)N[C@@H](C)C(=O)NCC(=O)N[C@@H](CCCNC(=N)N)C(=O)N[C@@H](CCC(=O)O)C(=O)N1)C(=O)NCC(N)=O
B21: no binding.

B22: P2-38 (peptide)
peptide: H-DPCTWETWGRECLQGG[Pra]G-NH2
modifications: disulfide 3-12
SMILES: C#CC[C@H](NC(=O)CNC(=O)CNC(=O)[C@H](CCC(N)=O)NC(=O)[C@H](CC(C)C)NC(=O)[C@@H]1CSSC[C@H](NC(=O)[C@@H]2CCCN2C(=O)[C@@H](N)CC(=O)O)C(=O)N[C@@H]([C@@H](C)O)C(=O)N[C@@H](Cc2c[nH]c3ccccc23)C(=O)N[C@@H](CCC(=O)O)C(=O)N[C@@H]([C@@H](C)O)C(=O)N[C@@H](Cc2c[nH]c3ccccc23)C(=O)NCC(=O)N[C@@H](CCCNC(=N)N)C(=O)N[C@@H](CCC(=O)O)C(=O)N1)C(=O)NCC(N)=O
B22 was tested, and the “KD/P2 KD” value was 12.3 ratio.

B23: P2-54 (peptide)
peptide: DPXTWEVWGRECLQGGGG
modifications: free N-terminus; Pen at 3, disulfide with Cys12; Par at 17; C-terminal amide
B23 was tested, and the “Result (affinity relative to KD of P2)” value was 4.78 ratio.

Reference: US20170224620A1 (Pfizer, published 2017)
